Common to all, as to test: cell-based or functional assay
One experiment concerns the target T1, human GIP receptor (human, UniProt P48546 22-466).
T1 sequence (looked up): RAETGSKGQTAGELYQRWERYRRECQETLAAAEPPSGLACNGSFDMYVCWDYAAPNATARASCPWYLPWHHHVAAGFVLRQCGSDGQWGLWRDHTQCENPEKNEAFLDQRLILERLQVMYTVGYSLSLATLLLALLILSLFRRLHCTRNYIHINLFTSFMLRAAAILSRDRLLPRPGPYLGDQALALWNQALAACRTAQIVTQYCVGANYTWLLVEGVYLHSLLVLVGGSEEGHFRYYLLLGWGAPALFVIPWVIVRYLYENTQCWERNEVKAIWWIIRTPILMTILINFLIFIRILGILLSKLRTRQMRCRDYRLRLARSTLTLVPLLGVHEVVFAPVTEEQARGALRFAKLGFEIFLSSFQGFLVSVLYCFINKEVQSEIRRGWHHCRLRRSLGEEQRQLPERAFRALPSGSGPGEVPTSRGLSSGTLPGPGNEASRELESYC

For the next experiment, the target named is human GCG receptor (human, UniProt P47871 26-477).
The target of the next experiment is human GLP-1 receptor (human, UniProt P43220 24-463).

human GCG receptor, sequence (P47871 26-477): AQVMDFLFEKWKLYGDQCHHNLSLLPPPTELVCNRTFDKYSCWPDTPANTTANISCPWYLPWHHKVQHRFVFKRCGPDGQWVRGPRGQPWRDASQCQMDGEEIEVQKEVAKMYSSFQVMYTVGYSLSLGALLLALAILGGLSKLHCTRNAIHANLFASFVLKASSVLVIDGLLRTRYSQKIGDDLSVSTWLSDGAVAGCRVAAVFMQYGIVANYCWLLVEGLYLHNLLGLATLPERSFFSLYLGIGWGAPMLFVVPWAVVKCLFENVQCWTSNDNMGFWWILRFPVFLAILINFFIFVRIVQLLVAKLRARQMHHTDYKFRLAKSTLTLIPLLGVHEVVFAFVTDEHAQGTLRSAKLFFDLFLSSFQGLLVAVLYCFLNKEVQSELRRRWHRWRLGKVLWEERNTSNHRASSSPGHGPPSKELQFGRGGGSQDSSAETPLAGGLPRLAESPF

B1: Compound 10 (peptide)
peptide: YXQGTXTSDYSIFLDKKAQXAFIEFLLESHPSSGAPPXS
modifications: Aib at 2; αMeF(2F) at 6; Lys 17 side chain AEEAc-AEEAc-γGlu-CO(CH2)18COOH; Aib at 20; Ac3c at 38; C-terminal amide (NH2)
Consider B1, for which, in the experiment with human GIP receptor, the “cAMP EC50, CHO cells stably overexpressing human GIP R” value worked out at 0.021 nM and the “cAMP Rel. A (%) against human GIP, human GIP R cells” value (“cAMP Rel. A (%) against human GIP” for short) is 862%. In addition, in the experiment with human GCG receptor, the “cAMP EC50, HEK-293 cells stably overexpressing human GCG R” value stood at 0.076 nM and the “cAMP Rel. A (%) against human GCG, human GCG R cells” value (“cAMP Rel. A (%) against human GCG” below) was determined as 75%. Also, in the experiment with human GLP-1 receptor, the “cAMP EC50, HEK-293 cells stably overexpressing human GLP-1 R” value turned out to be 0.047 nM and the “cAMP Rel. A (%) against human GLP-1 (7-37), human GLP-1 R cells” value (shortened to “cAMP Rel. A (%) … human GLP-1 R cells”) is 93.6%.

B2: Compound 8 (peptide)
peptide: YXQGTXTSDYSIXLDKKAQXAFIEYLLETGPSSGQPPPS
modifications: Aib at 2; αMeF at 6; αMeL at 13; Lys 17 side chain AEEAc-AEEAc-γGlu-CO(CH2)18COOH; Aib at 20; C-terminal amide (NH2)
Consider B2, for which, in the experiment with human GIP receptor, the “cAMP Rel. A (%) against human GIP” value was 1510%. Further, in the experiment with human GCG receptor, the “cAMP EC50, HEK-293 cells stably overexpressing human GCG R” value was 0.071 nM and the “cAMP Rel. A (%) against human GCG” value turned out to be 80.3%. The “cAMP Rel. A (%) … human GLP-1 R cells” value with human GLP-1 receptor amounted to 152%.

B3: Compound 9 (peptide)
peptide: YXQGTXTSDYSIFLDKKAQXAFIEFLLETGPSSGAPPXS
modifications: Aib at 2; αMeF(2F) at 6; Lys 17 side chain AEEAc-AEEAc-γGlu-CO(CH2)18COOH; Aib at 20; Ac3c at 38; C-terminal amide (NH2)
For the molecule B3, the “cAMP Rel. A (%) against human GIP” value in the experiment with human GIP receptor is 385%. The “cAMP Rel. A (%) against human GCG” value with human GCG receptor was determined as 91.9%. Further, in the experiment with human GLP-1 receptor, the “cAMP EC50, HEK-293 cells stably overexpressing human GLP-1 R” value is 0.017 nM and the “cAMP Rel. A (%) … human GLP-1 R cells” value stood at 259%.

B4: Compound 14 (peptide)
peptide: YXQGTXTSDYSIXLDKKAQXAFIEFLLETGPSSGAPPPS
modifications: Aib at 2; αMeF at 6; αMeL at 13; Lys 17 side chain AEEAc-AEEAc-γGlu-CO(CH2)18COOH; Aib at 20; C-terminal amide (NH2)
As to B4, in the experiment with human GIP receptor, the “cAMP EC50, CHO cells stably overexpressing human GIP R” value was determined as 0.011 nM and the “cAMP Rel. A (%) against human GIP” value worked out at 1650%. Also, the “cAMP Rel. A (%) against human GCG” value in the experiment with human GCG receptor was 50%. Also, in the experiment with human GLP-1 receptor, the “cAMP EC50, HEK-293 cells stably overexpressing human GLP-1 R” value stood at 0.01 nM and the “cAMP Rel. A (%) … human GLP-1 R cells” value came out at 440%.

B5: Compound 12 (peptide)
peptide: YXQGTXTSDYSIFLDKKAQXAFIEFLLETGPSSGAPPPS
modifications: Aib at 2; αMeF at 6; Lys 17 side chain AEEAc-AEEAc-γGlu-CO(CH2)18COOH; Aib at 20; C-terminal amide (NH2)
As to B5, the “cAMP Rel. A (%) against human GIP” value with human GIP receptor amounted to 221%. The “cAMP Rel. A (%) against human GCG” value in the experiment with human GCG receptor turned out to be 13.7%. In the experiment with human GLP-1 receptor, the “cAMP EC50, HEK-293 cells stably overexpressing human GLP-1 R” value is 0.014 nM and the “cAMP Rel. A (%) … human GLP-1 R cells” value came to 314%.

B6: Compound 13 (peptide)
peptide: YXQGTXTSDYSIFLDKKAQXAFIEYLLETGPSSGAPPPS
modifications: Aib at 2; αMeF at 6; Lys 17 side chain AEEAc-AEEAc-γGlu-CO(CH2)18COOH; Aib at 20; C-terminal amide (NH2)
As for B6, the “cAMP Rel. A (%) against human GIP” value with human GIP receptor came to 566%. Moreover, in the experiment with human GCG receptor, the “cAMP Rel. A (%) against human GCG” value came to 110%. Besides, in the experiment with human GLP-1 receptor, the “cAMP EC50, HEK-293 cells stably overexpressing human GLP-1 R” value came to 0.012 nM and the “cAMP Rel. A (%) … human GLP-1 R cells” value is 367%.

Source of the values: patent publication US20250129135A1, “Multi-Agonist and Use Thereof” (priority 2021, published 2025).
